Experimental data: the NTF2 design screens of Basanta et al. (2020)

Test: protease stability score; higher = more stable; yeast display proteolysis, trypsin and chymotrypsin;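 note: log10 excess protease needed over predicted unfolded state with 0 meaning unfolded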

Going from “DEEDQKNFAEQANRALHHGDPRQMATLADKDAEVTVGDREYKGRRDINEAMKDWSDQVDSIEVKSVTVQGNNIVVHFVFVHNGHEHKVVMRITMEGDKATSIHLDEK” to “DEEDQKRKANNVAENLINGNEDEARKYIDKDARVHVGDKTYRGREEARKVWHELRKKVDHLRVEHIDVQGDKVDVQAFFRHNGNQTNIQVHIRMENGHVKSISVDNR”, the protease stability score falls from 0.336 to -0.216.

First: DEEDQKRVLQEIVRMIQSGDPSQAKRLADPNATAEVGDKTYHGREKLSKYAKDLHDRVDRVHIQHYTVEGNKARIRVEVSVNGRTRQFEVKVQYHNGHITRLKVDTS
Second: DEEDQKTVEEFLHNLEKNNEDQIKRLLDKDVKFIIGDKELHGMEDAVDRLRRHIEEMKVRIESVSNTVSGDKVVVDFTFIEDQNGKPDRKRMKIEFRFHNGKAKEIRIETRQ
The protease stability score of the first is lower: 0.05 for the first, 1.38 for the second.

Compared with “DEEDQKVFERILEIFKTGDEEEAQKNMDKDVRVQYGDKQLHGRENIARELQTKMNELRYKFSIESVENHNGQVRVNFQFVENHNGRPSRKKAKLVVHFRNGKLRNFEQQDVS”, “DEEDQLKEIVERVHDVYKHGDEDKVRKMVDPNARARIGDKRIHGHDNFAKMIAEWKRKADSVSVHVEEFRVSGNKMTMTIRIKMDHNGRDTTFRYTAVATNTNGRVRVVRIQEK” is lower in protease stability score: 0.534 for the first, 0.049 for the second.

Compared with “DEEDQRRVAHDAADALRTGDPDRMVQLADPNVTLDIGDKRFTGDEEFHKAMKEISRQVDHMKIDSYTVRNGRASISAVLEVNGKRKRVFFVFVIHNGRIKELHIKTE”, “DEEDQRTIAKEVVKVMETGDEDRMRELVDEDVKVQYGDKTVHGREQAQRAMKDLRRRADHITMDSVTVHNGEITIKAQLKYNGQNQRVVVQVRVHNGKIKEFRFREQ” is lower in protease stability score: 1.59 for the first, 1.34 for the second.

Going from “DEEDRHELQRRAEHGDFLNLAHNADPNAHIKVGDKDLTGREDLDHVLRKMHNRIDRYHLVHVTKTGDKLVVRAQARVDGRDIEFKMEIRARNGRIKEVSIRFRSEEDQKTFEKLLK” to “DEEDRKSLHDLNRTGDEDEIAHNVDPNAKLDVGEFKVHGSEQVKKVMEELKKRIDHRHIRSISVRGDKLVARVQIDVNGQTAYYRLIIRVHNGRIKEINADYTSEDDKKAVNEAKS”, the protease stability score rises from 0.059 to 0.756.

Going from “DEEDRRKAKEAAERNDWKHFSDQMDEDVRVLVGDKRFHGREEAKQFVQKVEDRADTQSVDSVDVQGNQVDLDMKLNINGNDVRAQFEFYFHNGRIKEIKVTFTDPREERQFKELIK” to “DEEDSKQMKQVLEAIRRGDEDHVRQQFDPNARIRVGDKEYHGMEEYASDLRSKRSKLDHKINLKTMSASNGRIDFVVQVQFTIDGQPVTDEVRATAVVHNGKIVSLSNEVDEERISEVEK”, the protease stability score falls from 1.25 to -0.705.

Going from “DEEDVDRAARKFAEGNPDDVLKLADPNAELHVGDQTVHGKEDLERVMELDKRRIDHIHVNSMSVQGDNVKVLFKVVVNGRNIEFTLTANAHNGSIQFVMLNFTDERDEDKRRKALS” to “DEEDVDRFAKTFAEIFQSGNPENIREMMDPNARLHVGERTYHGRETIVQYLKRLRRDVDSIHLVSITNHGESIVIKVSLDVNGQHVVVHINVHFQNGRIKSMSMTYRDEEDRKKYEG”, the protease stability score rises from 0.28 to 2.

First: DEEDVEKMVRLVRDGDWEQFARNADENVRIQIGNREVHGRNEAHKAADKLTKHIDHFRIDRYDRNGDKLDVLFRMTVNGQEVKARMYVEVHNGRVTRMEIRATSEEILKRIDEVLS
Second: DEEDVKKAETLIKNGDWERIANHLDPNAKATYGDKTFHGHEELKRVIKNLQDQVDSLHIHKVDVQGNSVIVSADLHVNGETLKMTFVMHVHNGRVKEVSANVTSSELKELLDHMLS
The protease stability score of the first is higher: 1.37 for the first, 0.749 for the second.

First: DEEDVKKILDKVLKMAVKGDKDQVKTMLKPDVEYIHIDEKRQGQQVAEQVHKEIKKVGARAEIKEKTVEGDKAKVTYQFKVNGRTVEVTAEVEAKDGRVDKWQVHISDEAKEMMTKG
Second: DEEDVKRAERFQKHYQQGNTEEMRKLLDKNARIEVGDKTLHGRDDAKDKLRKNLDNWRFSMDSVDNKLKNGQVRIDIKYRMVINGRPFSITYKLNVKFENGKVQFMEDRISEDDQRHLEK
The protease stability score of the first is lower: -0.289 for the first, 0.582 for the second.

Compared with “DEEDVKRAVEIFNTNNEEDLRRLVDKHAKITVGDKDVHGRKTAETLIHKLNSQADRIHLESVHKNGEQVVIKMVADVNGEKLDFQIVFVIKNGRLTSQRNVARNEDVERTLKNLYS”, “DEEDVKRFAREFFTALQKNDEKKVTDLVDENARAEVGEREYHGREDVATMLARFNKRVDHAHLKRLEVTGDQVIMVFEVVHDGRKTNVSIDMRVHNGRLLEFRMETS” is higher in protease stability score: -0.119 for the first, 1.41 for the second.

First: DEEDVKTLMNLMRNNNFEDLQRMADPNAKVIVGDQTYQGQKEVRTFLHKLKDQIDHLDIKSLDYHNGRVVLDVEATVNGQRFRYVLTVDVHNGHVKSVRFQARSEKDERILKEQAS
Second: DEEDVKTMIRIINTGDPDKFEKYFDPNASVRIGDHTFKGNKQVSEFIRRMRRKADHIEVKRVKTTNGRADIDLVVTFNGREIRFHVHAEAHNGKAERQELKVTDPNQQKELNNLVH
The protease stability score of the first is higher: 1.11 for the first, 0.837 for the second.

Compared with “DEEDVRRMENVVRENNEHRLAQLADKNARMTVGDQTYHGKEKIAEAIRRVQKQVDHMEIERLTIHGDKIRADVTMVVNGQRFRYVVVFNVKNGRLKERSVNFRDERDSEEFKKIEK”, “DEEDVRRVAKQAKEYVQKGNKEKLMDLGKEGVDYRVLDHKAKGPEAIKTMQDYLERKGARVEVKKLEVKGDQVRTEVHYKQGDTTATAEVHATVKGGKIDKVKVDLSDRAKEILKHG” is lower in protease stability score: 0.021 for the first, -0.141 for the second.

Going from “DEEDVTRLAEEMVRAFESGNPEDWVKMLDENARVRIGDKVYHGREQVQTFANSWVSRADHARVESFSVHGDNIHIKAVMDIDGVRVQVIIVARAHNGRVQELRVEWRNEDQKKHVDK” to “DEEDYKKMNEQLERIYKHGDPEEAEKMFDPNAKAEVGDKTIHGREEFRKYQQDRKDQADHVQVKDFKVQGERFVMEVVAHVNGREVRQVVNFTVHNGKIQDLKVREK”, the protease stability score falls from 1 to 0.013.

Compared with “DEEDYKSIATEFVQALREGDEQHFRRLLDEEVNNDVGDKRIRGREKVETELRKILHKVDHVDVKDYKVHNGHVTVDMRFDDNGKEERWTMQAQFHNGRLKSIWMRTR”, “DEEEADKVAKDFNRMLTKGDEHRASQLFDENATVVVGDKTVHGTESIKKIIHEIHRKADHIEIDSVKNRGNKVQVDLHQDINGTRERYVFHVSFHNGRIKYAEINQD” is lower in protease stability score: 1.08 for the first, -0.322 for the second.

First: DEEEADSWMKILQTNDEKKARDNIDPNATAHVGEQRFDGAQDFVARFMQVLKSADHVRIHSVDHEGDKVRMDITFDINGQRARVVLNIQIKNGRVVHVSVEVRNEEVKKVFDKALK
Second: DEEEAEKILEKLVKAVENGDETKLMQLGADGVRYKVGDREDHGPEAIQKAMQYLKRYGVRVEFKEVKHKGDRVTTVAEYENGDKRNTVTIHAHAKGGKIDEVQVNVDEDLVKFIKHG
The protease stability score of the first is lower: 0.16 for the first, 0.266 for the second.

Compared with “DEEEAHELLKKVLHYTVKGNVDELRKFVKPDLKYVLGDQEHQGSQVADQVEKEIRRQGTRLEVEKAEVKGDKAELQYRFTVAGKTFTLHVRVRAKDHRVDEWKVEMTDDVKEYQKKG”, “DEEEAHKFQEAVERNDFEKFVRNADPNAHVQVGDQHIDGHDKMRKQYHDLKRAADKIEYKSIDVQGDKIDVKFTVRFNGREYEVHMQIEVHNGRLKTVKYDATSEHNRTILQEMMS” is lower in protease stability score: 0.391 for the first, -0.032 for the second.

Going from “DEEEAHKVKDVVENGDPDTLQNMADKDATARYGDKQVHGREQVRTAIKLWMDHVDHIDIRNIHVEGNKVNVDAVFNVNGRNLNVRFRMEVHNGKIKSFELQATDERIRETLERILS” to “DEEEAHKVQEAWKTGDPDHLRDLFDKDVRLVYGDQEVHGREELVKIFKKQQDQYDHQHIERVSLTGNRVEIRYKAVVNGQTVSRVIYIKIKNGRIKEMEIRATNPEELKEMYRLAS”, the protease stability score falls from 1.02 to 0.284.

First: DEEEAKEFADVFKNGDQDRYADLFDPNARVNIGNKEYHGRERVRTAVRTFFQRIDHIQVNHVRIEGNQLRIDAKMEINGQRIQVVFKVRIHNGHIKQFVVDFRDEQTMREFHKQLE
Second: DEEEAKEMMEKWMKIVEKGDSDKAQKIYKPNVVWENVDKKTQGVKQVKEMVKRIKDQGMEFQVRRAEVEGNTVEVQYDVRIGNTTVTFKVQVKAEGGRIDEVRVELDETAVKQLKKG
The protease stability score of the first is higher: 1.27 for the first, 0.31 for the second.

Compared with “DEEEAKKFMETWQKAVEKGDTKTARELYDPNVEWIDYSQRHQGVEMVVKQMQQVKKKGVEFQIRKAKVEGNEVEVVYDANIGNETATFTVQFRAEGGRVKEVRVKMDEKAKKIKREG”, “DEEEAKKIVETVVKAVENGDVEKLKQMIKEGGKYKVINRERHGPEAVEEVIRLLQKAGVEMEFKEVRVEGNTATTRVEYRHGDKEAEVKVTATMQGGRIDEVRFKMSEEAQKMVEHG” is higher in protease stability score: 0.064 for the first, 1.08 for the second.

Going from “DEEEAKKNVKVWEQNDPDTFNKLVDKDAKAVIGDKEVHGRSEINRIIKRLLQQADHWQVDEVHIHNGRVHISYQFVINGQRLDVRVTIELRNGRIKDVKVHFTDDEQKKRANENVR” to “DEEEAKKVLDKAVKAVKNGDLKHLKDLGKDGVEYRIADKKAHGPEQIEKVMEYLHRKGVRIEFKRQEVKGNTVTTDIEYQQGDETYTVQAHATVKGGRIDKVEIDVSERAKKVMDHG”, the protease stability score falls from 0.943 to 0.149.

Compared with “DEEEAKKVMEKWMKVVQKGDKDKVKKLYPPNVNWLNINTQKQGVEVVVKMMKQVQDKGAQFQVRRAEVKGDEAEMQYDLRIGDKTATFTVRIRAKGGQVEMVEVKVTEEAKKIVDTG”, “DEEEAKKVVDQAVKYFQNGDAEKLRDLGKEGVKYRVADVEAHGPEVVLKAVERLKRQGVKIQYRKVEVKGDTVTTQLDYQQGDRTFTVTIEAEVKGGKIDRVEADANEDAKKIVKHG” is higher in protease stability score: 0.111 for the first, 0.172 for the second.

Compared with “DEEEAKKVVETAVKYLQKGNVKQLKDIGHEGVDYQVADNKKKGPDAIEDVLRYLEKLGVRMEVKKQEVKGDTAHTVVDYQQGDTKVRATVEADIQGGRIDRVQVNVPETLKKILKHG”, “DEEEAKRQMEEFAHGDPDKMVNNVDENADAVVGDRRFHGRKDIKEWAERMKKRIDTNKYEHVEQQGDKVDAIYNITVNGQELRFKLVIKIDNGRVEYVKVDVTDEENLKILQEIFS” is higher in protease stability score: -0.284 for the first, 0.121 for the second.

Going from “DEEEAQDVLQEVFKAVSRGDEDRAEQLADPNAKAEYGDKSYHGKKVIKEAVRRMSEQADHFEFKHIDHDEGRVVFDMEIEFNGQTFKVKVKAQAHNGRAQNFKFQFRSEDDLERLQS” to “DEEEAQKFRKHAKSNDQDNMRRMMDEDVRVIVGDFEVQGREDAEENLLRLNQRVDHISVKSIDVQGEHVTVDVEMTIDGTKFVVVYVVQFHNGRIKQLDLRARDEKDEKAFRRAVG”, the protease stability score rises from -0.23 to 0.234.

Compared with “DEEEASTIAKVFRTNNWEELVRLADENAKVKVGDKEVHGRHVVDEMVKLISDAADTIKYDSYTVQGEKIEMVVKLVINGQKVEFKLTARAHNGRIKEIVLSVRDEDQKRKFEKEDG”, “DEEEDAEKLLERREKVFRQGDPDQMQRMMDPNARIKVGDREVHGREEVDRTLLEQARKADHIRFELKDMRVQGDKVVLDVHVKFEVNGRHQSRQVQYVAQFHNGRYTFRSARER” is lower in protease stability score: 0.783 for the first, 0.047 for the second.

First: DEEEDEKFVEFLKNVERGNEDKLRELVPPDAKNQVGDTVVEGRDEWLKKLTSELKKSRVTYNVKSVSASNGRMSLVVDVTVDENGRPQKRDLRIDATVHNGKWQKVHLKFDS
Second: DEEEDKKMLDNINTIWERGNPDEIEKLIDPNARVQVGDKTLHGREQIKHFLKRLHERIDHFEYQSVSAHNGRMRARVRFRVNGVHVRMEIDATYNNGKVKKMEVRVTDEKHLERARK
The protease stability score of the first is lower: 0.342 for the first, 0.741 for the second.
